Laboratory results as given in US20170247447A1 (Hoffmann-La Roche, published 2017).
Positions count from the first letter of the chain named. Where two headings read alike, the source gives them in different places.

B1: mumAb (novel murine anti-human IL-1beta antibody) (antibody, V domains shown)
VH: EVQLQQSGPELEKPGASVKISCKASGYSFTDYNMNWVRQSNGKSLEWIGNIDPYYGGTTYNQKFKDKATLTVDKSSSTAYMQLKSLTSEDSAVYYCAREGSPTRYYVMDYWGQGTSVTVSS
VL: DIQMTQSPASLSASVGETVTITCRASENIYSNLAWYQQKQGKSPQLLVYAATNLADGVPSRFSGSGSGTQFSLKINSLQPEDFGSYYCHHFYNTPWTFGGGTKLEIK
B2: murine anti-IL-1beta antibody ILB1-H34 (antibody, mouse IgG1, V domains shown)
VH: EVQLQQSGPELVKTGASVKISCKASGYSFTGYYMHWVKQSHGKSLEWIGYISCYNAFTTYNQRFRGKATFTVDTSSSTAYMQFNSLTSEDSAVYYCVRSDYYGTSLYWGQGTTLTVSS
VL: QIVLTQSPAIMSASLGEEITLTCSASSSVSYMHWSQQKSGSSPKLLIYSTSNLASGVPSRFSGSGSGTFYSLTISSVEAEDAADYYCHQWSNYYTFGGGTKLEIK
notes: also called HLB1-H34
B3: huH34-2 (antibody, V domains shown)
VH: QVQLVQSGAEVKKPGASVKVSCKASGYTFTGYYMHWVRQAPGQGLEWIGYISSYNAFTTYNQKFRGRATFTVDTSISTAYMELSRLRSDDTAVYYCVRSDYYGTSLYWGQGTLVTVSS
VL: EIVLTQSPATLSLSPGERATLSCRASSSVSYMHWSQQKPGQAPRLLIYSTSNLASGIPARFSGSGSGTDFTLTISSLEPEDFAVYYCHQWSNYYTFGQGTKLEIK
notes: Humanized, captured by anti-human Fc in SPR; also called huH34-2 bivalent
B4: Canakinumab (antibody, V domains shown)
VH: QVQLVESGGGVVQPGRSLRLSCAASGFTFSVYGMNWVRQAPGKGLEWVAIIWYDGDNQYYADSVKGRFTISRDNSKNTLYLQMNGLRAEDTAVYYCARDLRTGPFDYWGQGTLVTVSS
VL: EIVLTQSPDFQSVTPKEKVTITCRASQSIGSSLHWYQQKPDQSPKLLIKYASQSFSGVPSRFSGSGSGTDFTLTINSLEAEDAAAYYCHQSSSLPFTFGPGTKVDIKR
B5: huH34-3 (antibody, V domains shown)
VH: B3 VH with N55S
VL: B3 VL
B6: huH34-1 (antibody, V domains shown)
VH: B3 VH with I48M, N55S, A56G, N61A, R65Q, A68V, F70M, V72R, V97A
VL: B3 VL
B7: antibody 0031 (bispecific anti-ANG2/IL-1beta CrossMab antibody) (bispecific antibody, V domains shown)
VH 1: B3 VH
VL 1: B3 VL
VH 2: not shown
VL 2: SYVLTQPPSVSVAPGQTARITCGGNNIGSKSVHWYQQKPGQAPVLVVYDTSDRPSGIPERFSGSNSGNTATLTISRVEAGDEADYYCQVWDSSSDHWVFGGGTKLTVLSS
notes: also called anti-IL-1beta/ANG2 antibody
B8: antibody 0032 (bispecific anti-VEGF/IL-1beta CrossMab antibody) (bispecific antibody, V domains shown)
VH 1: EVQLVESGGGLVQPGGSLRLSCAASGYDFTHYGMNWVRQAPGKGLEWVGWINTYTGEPTYAADFKRRFTFSLDTSKSTAYLQMNSLRAEDTAVYYCAKYPYYYGTSHWYFDVWGQGTLVTVSS
VL 1: DIQLTQSPSSLSASVGDRVTITCSASQDISNYLNWYQQKPGKAPKVLIYFTSSLHSGVPSRFSGSGSGTDFTLTISSLQPEDFATYYCQQYSTVPWTFGQGTKVEIK
VH 2: B3 VH
VL 2: B3 VL
notes: also called anti-IL-1beta/VEGF antibody

How the values were obtained:
human IL-1beta [1] = molecular target: T1, human IL-1beta (human, UniProt P01584 117-269); experiment: cell-based or functional assay
human IL-1beta [2] = molecular target: T1, human IL-1beta; experiment: cell-based or functional assay; remark: listed apart in the source
human IL-1beta [3] = molecular target: T1, human IL-1beta; experiment: cell-based or functional assay; remark: listed apart in the source
human IL-1beta [4] = molecular target: T1, human IL-1beta; experiment: cell-based or functional assay; remark: listed apart in the source
human IL-1beta [5] = molecular target: T1, human IL-1beta; experiment: cell-based or functional assay; remark: listed apart in the source
human IL-1beta [6] = molecular target: T1, human IL-1beta; experiment: immunoprecipitation radioimmunoassay with 125I-IL-1beta
Method: Determination of antibody affinity—Monoclonal antibody affinity was determined from data obtained using an immunoprecipitation radioimmunoassay. Briefly, 5000 cpm/tube of ¹²⁵IIL-1beta was incubated with dilutions of purified monoclonal antibody in 0.3 ml of 1% non-fat dry milk/0.5% Thimerosal/PBS overnight at 4° C. Antigen-antibody complexes were precipitated by the addition of 100 μL/tube each of 10% normal mouse serum/PBS and 4 mg/ml goat anti mouse IgG sera in PBS. After 4 hours at 4° C., the 1/ml tube of ice-cold 2% polyethylene glycol-6000 was added and the tubes centrifuged at 3000*g for 20 min. at 4° C. The supernatants were aspirated and the pellets counted in a gamma counter.
Affinity constants were calculated using data obtained from an immunoprecipitation radioimmunoassay (RIA) of ¹²⁵IIL-1beta binding of different antibody concentrations as described above.

human IL-1beta [7] = molecular target: T1, human IL-1beta; experiment: SPR (BIAcore), antibody captured via anti-Fc, IL-1beta in solution
Method: All experiments were performed at 25° C. using HBS-P (10 mM His, 140 mM NaCl, 0.05% Tween 20 pH 7.4) as running and dilution buffer. Anti-human or anti-mouse Fc antibodies were immobilized on a Series S CMS Sensor Chip (GE Healthcare) using standard amine coupling chemistry. […] The dissociation phase was monitored for 600 sec by washing with running buffer. […] The surface was regenerated by injecting 3 M MgCl2 (for anti-human Fc antibody) or 10 mM Glycine pH 1.5 (for anti-mouse Fc antibody) for 60 sec at a flow rate of 5 μl/min. Bulk refractive index differences were corrected by subtracting the response obtained from a mock surface. Blank injections were subtracted (double referencing). The derived curves were fitted to a 1:1 Langmuir binding model using the BIAevaluation software.

cynomolgus IL-1beta [8] = molecular target: T2, cynomolgus IL-1beta (cynomolgus, UniProt P79182 117-268); experiment: as above
human IL-1beta [9] = molecular target: T1, human IL-1beta; experiment: as above; remark: listed apart in the source
cynomolgus IL-1beta [10] = molecular target: T2, cynomolgus IL-1beta; experiment: as above; remark: listed apart in the source
human IL-1beta [11] = molecular target: T1, human IL-1beta; experiment: SPR competition, 10 nM human IL-1beta pre-incubated with antibody, competitor immobilized human IL-1RI
Method: All experiments were performed at 25° C. using HBS-P (10 mM His, 140 mM NaCl, 0.05% Tween 20 pH 7.4) as running and dilution buffer. Human IL-1RI was immobilized on a Series S CM5 Sensor Chip (GE Healthcare) using standard amine coupling chemistry. […] The surface was regenerated by injecting 10 mM NaOH for 60 sec at a flow rate of 5 μl/min. Bulk refractive index differences were corrected by subtracting the response obtained from a mock surface.

human IL-1beta [12] = molecular target: T1, human IL-1beta; experiment: cell-based or functional assay; remark: listed apart in the source
human IL-1beta [13] = molecular target: T1, human IL-1beta; experiment: SPR (BIAcore T200), antibody captured via anti-human Fc, human IL-1beta in solution
Method: All experiments were performed at 25° C. using HBS-P (10 mM His, 140 mM NaCl, 0.05% Tween 20 pH 7.4) as running and dilution buffer. Anti-human Fc antibodies were immobilized on a Series S CM5 Sensor Chip (GE Healthcare) using standard amine coupling chemistry. Bispecific antibodies were captured on the surface leading to a capturing response of 100-200 RU. […] The dissociation phase was monitored for 600 sec by washing with running buffer. The surface was regenerated by injecting 3 M MgCl2 (for anti-human Fc antibody) or 10 mM Glycine pH 1.5 (for anti-mouse Fc antibody) for 60 sec at a flow rate of 5 μl/min. Bulk refractive index differences were corrected by subtracting the response obtained from a mock surface. Blank injections were subtracted (double referencing). The derived curves were fitted to a 1:1 Langmuir binding model using the BIAevaluation software.

human IL-1beta [14] = molecular target: T1, human IL-1beta; experiment: cell-based or functional assay; remark: listed apart in the source
human IL-1beta [15] = molecular target: T1, human IL-1beta; experiment: cell-based or functional assay; remark: listed apart in the source

T2 sequence (P79182 117-268 limits assumed): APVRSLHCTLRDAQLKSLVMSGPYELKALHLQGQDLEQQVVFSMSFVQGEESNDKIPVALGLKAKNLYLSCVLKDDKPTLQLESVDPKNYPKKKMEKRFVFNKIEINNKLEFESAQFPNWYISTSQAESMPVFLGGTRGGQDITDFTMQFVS

Binder	IC50, inhibition of ICAM-1 expression, A549 cells (human IL-1beta [4]) [nM]	IC50, inhibition of ICAM-1 expression, HUVEC cells (human IL-1beta [5]) [nM]	EC50, reduction of IL-6 expression, A549 cells (human IL-1beta [12]) [nM]	t½ (human IL-1beta [13]) [s]	EC50, reduction of IL-6 expression, A549 cells (human IL-1beta [14]) [mg/L]	other results
B1						IC50, inhibition of ICAM-1 expression, A549 cells (human IL-1beta [1]): 0.7 nM; IC50, inhibition of ICAM-1 expression, HUVEC cells (human IL-1beta [2]): 16.5 nM; EC50, reduction of IL-6 expression, A549 cells (human IL-1beta [3]): 1.09 nM
B2	0.18	0.24				Ka (human IL-1beta [6]): 6.4e+10 M⁻¹; Kd (human IL-1beta [7]): 0.07 nM; koff (human IL-1beta [7]): 0.000127 s⁻¹; kon (human IL-1beta [7]): 1.85e+06 M⁻¹ s⁻¹; Kd (cynomolgus IL-1beta [8]): 0.05 nM; koff (cynomolgus IL-1beta [8]): 9.8e-05 s⁻¹; kon (cynomolgus IL-1beta [8]): 1.99e+06 M⁻¹ s⁻¹; Kd (human IL-1beta [9]): 0.07 nM; koff (human IL-1beta [9]): 0.000127 s⁻¹; kon (human IL-1beta [9]): 1.85e+06 M⁻¹ s⁻¹; Kd (cynomolgus IL-1beta [10]): 0.05 nM; koff (cynomolgus IL-1beta [10]): 9.8e-05 s⁻¹; kon (cynomolgus IL-1beta [10]): 1.99e+06 M⁻¹ s⁻¹; IC50 (human IL-1beta [11]): 3.5 nM
B3	0.23	0.3	0.11	101		
B4	0.31	9.02	0.12		0.0864	
B5	2.23		1.09			
B6	> 7		5.52			
B7				38	0.017	IC50, inhibition of ICAM-1 expression, A549 cells (human IL-1beta [15]): 0.104 mg/L
B8				38	0.0387	
